Assay [1] has as its target T1, Human MMP-9 catalytic domain (Homo sapiens, UniProt P14780).
T1 construct: Human MMP-9 catalytic domain (BIOMOL, SE-244); purchased BIOMOL SE-244
The assay can be described thus: Ki measurement and inhibition model, fluorogenic substrate Mca-KPLGL-Dap(Dnp)-AR-NH2. In kind it is biochemical. The conditions noted are these: fluorogenic peptide substrates. As for the experimental part:
(§1) This example characterized the interaction of the M0237-D02 hIgG1 with the human and mouse MMP-9. The Ki was measured and the inhibition mechanism was determined
(§2) Materials: • Substrate: Mca-KPLGL-Dap(Dnp)-AR-NH2 (M-2350) from BACHEM (521575). A 10 mM stock solution was prepared in DMSO. • Enzymes: • Human MMP-9 catalytic domain (BIOMOL, SE-244). Enzyme concentration was measured by titration with TIMP-1 (2522-104) • Mouse MMP-9 (R&D, 909-MM), APMA-activated. • M0237-D02 hIgG1: 2517-014. Dialysed against TCN. • TCNB: 50 mM Tris/HCl, 10 mM CaCl2, 150 mM NaC, […], pH 7.5. • -96-well black plates from Perkin Elmer (6005270) • Spectramax M2e to measure fluorescence emission of the substrate upon hydrolysis (temperature control set at 30° C.; λexc=328 nm and λem=393 nm)
(§3) The enzyme (final concentration=0.23 and 0.17 nM for the human and mouse MMP-9, respectively) was preincubated with various concentrations (0-50 nM) of M0237-D02 for 1 h at 30° C. The substrate was then added to a final concentration ranging from 5 to 40 μM and initial rates were recorded.
(§4) Each data point was measured in triplicate, and initial rates were averaged.
(§5) Averaged initial rates were plotted against the M0237-D02 concentration for each substrate concentration, and IC50's were calculated using the following equation: […]
(§6) The IC50 values were then plotted against the substrate concentration.

The target of assay [2] is T2, Mouse MMP-9 (Mus musculus, UniProt P41245).
T2 construct: purchased R&D Systems 909-MM (909-MM-010)
The description is as above. In kind it is biochemical. The conditions noted are these: fluorogenic peptide substrates. As for the experimental part: as §1, §2, §3, §4, §5, §6

In a further assay the target is T3, human TIMP-1 (Homo sapiens, UniProt P01033).
T3 construct: purchased R&D Systems 970-TM
Nature of the assay: Biacore 3000 binding to antibody-coated CM5 chip. The conditions noted are these: Direct capture; 25° C. As for the experimental part:
(§7) Experiments were performed at 25° C. with the help of a Biacore 3000 instrument. The MMP-9 binding protein (M0166F10) and the M0237-D02 antibody were coated to a CM5 chip either via standard amine coupling or using an anti-Fc antibody surface. Then either the active, human MMP-9 catalytic domain (BIOMOL, SE-244), the human pro-MMP-9 (R&D, 911-MP), the human TIMP-1 (R&D, 970-TM) or a h-MMP-9/h-TIMP-1 complex were flowed over the antibody surfaces, and binding was recorded.

A further assay concerns the target T4, human pro-MMP-9 (Homo sapiens, UniProt P14780).
T4 construct: the human pro-MMP-9 (R&D, 911-MP); purchased R&D Systems 911-MP
Nature of the assay: Biacore 3000 binding to antibody-coated CM5 chip. The conditions noted are these: Direct capture, 25° C. As for the experimental part: as §7

The target of the next assay is h-MMP-9/h-TIMP-1 complex (Homo sapiens, UniProt P14780). Nature of the assay: Biacore 3000 binding to antibody-coated CM5 chip. The conditions noted are these: 25° C. As for the experimental part:
The non competitive inhibition model implies that the ternary complex enzyme-substrate-inhibitor can form. It is however possible that this complex cannot form with bigger substrates, in which case the antibody would behave as a competitive inhibitor. In order to address this issue, the ability of M0237-D02 antibody to bind to the h-MMP-9 when the enzyme is complexed to its natural inhibitor h-TIMP-1 was determined. The reasoning is that if the antibody cannot bind to the h-MMP-9/h-TIMP-1 complex, it would probably behave as a competitive inhibitor of this enzyme in the presence of bigger substrates.
as §7

Assay [3] addresses T2, Mouse MMP-9. Nature of the assay: Enzyme inhibition assay (single point inhibition, IC50/Ki,app), substrate M-2350. Format: biochemical.
Another assay addresses T5, mouse MMP-2 (Mus musculus, UniProt P33434).
T5 construct: purchased R&D Systems 924-MP-010
The assay is described as above. Format: biochemical.

Chain of h-MMP-9/h-TIMP-1 complex (P14780 107-444 limits assumed): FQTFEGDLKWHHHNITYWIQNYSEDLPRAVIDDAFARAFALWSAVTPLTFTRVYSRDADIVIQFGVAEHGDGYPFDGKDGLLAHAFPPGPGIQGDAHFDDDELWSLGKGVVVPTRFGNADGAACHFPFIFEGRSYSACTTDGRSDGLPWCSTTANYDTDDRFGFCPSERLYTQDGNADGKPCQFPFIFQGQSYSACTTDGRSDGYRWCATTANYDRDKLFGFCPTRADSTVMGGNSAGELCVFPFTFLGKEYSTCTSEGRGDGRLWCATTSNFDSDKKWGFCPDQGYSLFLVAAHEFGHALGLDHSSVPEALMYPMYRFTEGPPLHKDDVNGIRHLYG
Chain of h-MMP-9/h-TIMP-1 complex (P01033 24-207 partner): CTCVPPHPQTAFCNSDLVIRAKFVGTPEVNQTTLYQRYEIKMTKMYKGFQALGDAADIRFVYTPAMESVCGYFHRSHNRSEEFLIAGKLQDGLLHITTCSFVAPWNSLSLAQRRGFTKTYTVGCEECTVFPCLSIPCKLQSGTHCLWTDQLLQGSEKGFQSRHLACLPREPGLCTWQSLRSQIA
T4 sequence (P14780 20-707 limits assumed): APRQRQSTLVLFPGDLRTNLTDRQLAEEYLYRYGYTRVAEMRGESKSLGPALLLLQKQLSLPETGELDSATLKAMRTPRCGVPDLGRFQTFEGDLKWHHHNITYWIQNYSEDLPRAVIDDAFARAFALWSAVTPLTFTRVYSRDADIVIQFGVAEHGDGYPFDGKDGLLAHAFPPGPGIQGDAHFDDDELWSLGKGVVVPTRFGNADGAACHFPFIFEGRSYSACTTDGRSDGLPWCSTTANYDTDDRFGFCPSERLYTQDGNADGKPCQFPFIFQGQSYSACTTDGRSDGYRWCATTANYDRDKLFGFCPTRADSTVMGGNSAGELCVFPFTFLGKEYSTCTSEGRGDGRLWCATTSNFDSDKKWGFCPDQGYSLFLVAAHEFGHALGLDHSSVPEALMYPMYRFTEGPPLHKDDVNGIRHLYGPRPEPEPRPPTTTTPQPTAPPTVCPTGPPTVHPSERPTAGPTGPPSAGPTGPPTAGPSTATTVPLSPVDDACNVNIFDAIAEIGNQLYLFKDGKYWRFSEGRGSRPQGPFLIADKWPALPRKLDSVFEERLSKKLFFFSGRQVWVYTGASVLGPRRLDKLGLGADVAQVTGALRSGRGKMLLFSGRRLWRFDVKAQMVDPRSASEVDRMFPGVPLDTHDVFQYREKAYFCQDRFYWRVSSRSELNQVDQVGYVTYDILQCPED
T5 sequence (P33434 110-662): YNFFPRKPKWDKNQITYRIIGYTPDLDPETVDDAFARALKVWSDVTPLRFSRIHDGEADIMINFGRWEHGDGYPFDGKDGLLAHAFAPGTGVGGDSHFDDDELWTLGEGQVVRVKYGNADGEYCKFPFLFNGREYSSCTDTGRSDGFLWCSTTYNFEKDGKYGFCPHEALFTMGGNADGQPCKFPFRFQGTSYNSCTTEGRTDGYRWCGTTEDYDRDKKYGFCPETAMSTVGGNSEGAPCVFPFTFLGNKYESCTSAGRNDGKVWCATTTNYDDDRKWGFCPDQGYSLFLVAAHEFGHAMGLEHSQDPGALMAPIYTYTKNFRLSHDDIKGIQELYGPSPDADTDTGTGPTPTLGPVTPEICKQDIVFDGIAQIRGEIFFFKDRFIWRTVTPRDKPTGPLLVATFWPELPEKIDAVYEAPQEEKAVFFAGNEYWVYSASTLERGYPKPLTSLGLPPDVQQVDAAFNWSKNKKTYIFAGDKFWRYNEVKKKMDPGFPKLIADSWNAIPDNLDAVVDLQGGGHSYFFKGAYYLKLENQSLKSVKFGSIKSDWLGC
T2 sequence (P41245 108-730): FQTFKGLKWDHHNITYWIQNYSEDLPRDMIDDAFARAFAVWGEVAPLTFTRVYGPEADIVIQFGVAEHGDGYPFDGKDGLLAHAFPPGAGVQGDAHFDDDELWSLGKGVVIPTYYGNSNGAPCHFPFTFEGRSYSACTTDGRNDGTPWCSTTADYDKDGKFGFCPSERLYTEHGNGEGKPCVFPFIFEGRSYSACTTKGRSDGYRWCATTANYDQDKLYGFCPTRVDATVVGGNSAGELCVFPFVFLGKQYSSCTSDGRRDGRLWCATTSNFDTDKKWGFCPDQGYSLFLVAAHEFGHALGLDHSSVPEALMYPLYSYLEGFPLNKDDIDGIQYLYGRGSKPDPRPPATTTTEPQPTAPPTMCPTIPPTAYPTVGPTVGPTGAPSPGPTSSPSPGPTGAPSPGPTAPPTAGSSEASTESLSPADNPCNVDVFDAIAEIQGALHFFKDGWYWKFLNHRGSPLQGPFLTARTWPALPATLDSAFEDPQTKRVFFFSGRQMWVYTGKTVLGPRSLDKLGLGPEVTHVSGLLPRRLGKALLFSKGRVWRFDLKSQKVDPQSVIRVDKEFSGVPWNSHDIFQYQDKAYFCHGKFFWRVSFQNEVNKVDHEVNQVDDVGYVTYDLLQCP
T1 sequence (P14780 107-444 limits assumed): as the sequence (P14780 107-444 limits assumed) above
T3 sequence (P01033 24-207): as the sequence (P01033 24-207 partner) above

B1: M0237-D02: MMP-9/-2 dual reactive antibody inhibitor (parental); sFab and hIgG1 (antibody, V domains shown)
VH: EVQLLESGGGLVQPGGSLRLSCAASGFTFSQYPMWWVRQAPGKGLEWVSYIVPSGGRTYYADSVKGRFTISRDNSKNTLYLQMNSLRAEDTAVYYCAKDRAYGDYVGWNGFDYWGQGTLVTVSS
VL: DIQMTQSPATLSLSPGERATLSCRASQSISSFLAWYQQKPGQAPRLLIYDASYRATGIPARFSGSGSGTDFTLTISSLEPEDYAVYYCQQRGNWPITFGQGTRLEIK
As for B1, the inhibition model entry (in assay [1]; with Mouse MMP-9 [2]) was “non competitive inhibitor” in each case. For the same molecule, in the assay with human TIMP-1, the “binding of huTIMP-1” value was “No”. The “binding of Pro-huMMP-9” value with human pro-MMP-9 (listed as 539A-M0237D02) is recorded as “No”; with human pro-MMP-9 (listed as M237-D02) it was “observed neither”. The “binding of huTIMP-1/cat-huMMP-9” value with h-MMP-9/h-TIMP-1 complex (Direct capture) is given as “No”; with h-MMP-9/h-TIMP-1 complex (Fc capture), “no binding was observed”; with h-MMP-9/h-TIMP-1 complex (Fc capture, listed as 539A-M0237D02) it was “No”. For the same molecule, the “affinity for mMMP-9 (in words)” value in the assay with Mouse MMP-9 [3] is “high affinity”. The “affinity for mMMP-2 (in words)” value with mouse MMP-2 is “low affinity”. Further, the Ki with mouse MMP-2 (IgG, Table 12) came out at 76 nM.

The values above are taken from patent US20110135573A1, “METALLOPROTEINASE 9 AND METALLOPROTEINASE 2 BINDING PROTEINS” (DYAX CORP., priority 2009, published 2011).
